Reference: patent US20040235710A1, “Pre-mixes of glp-1 and basal insulin” (published 2004)
Substitutions are numbered along the chain they refer to.

B1: Val^8-Tyr^16-GLP-1(7-37)OH (peptide)
peptide: HVEGTFTSDYSSYLEGQAAKEFIAWLVKGRG
B2: Val^8-Tyr^12-GLP-1(7-37)OH (peptide)
peptide: B1 peptide with F6Y, Y10V
B3: Val^8-Glu^22-Ile^25-GLP-1(7-37)OH (peptide)
peptide: B1 peptide with Y10V, G16E, A19I
B4: Val^8-Tyr^16-Trp^19-Glu^22-GLP-1(7-37)OH (peptide)
peptide: B1 peptide with Y13W, G16E
B5: Val^8-Ile^16-Glu^22-GLP-1(7-37)OH (peptide)
peptide: B1 peptide with Y10I, G16E
B6: Val^8-Lys^18-Glu^22-GLP-1(7-37)OH (peptide)
peptide: B1 peptide with Y10V, S12K, G16E
B7: Val^8-Phe^20-Glu^22-GLP-1(7-37)OH (peptide)
peptide: B1 peptide with Y10V, L14F, G16E
B8: Val^8-Asp^9-Ile^11-Tyr^16-Glu^22-GLP-1(7-37)OH (peptide)
peptide: B1 peptide with E3D, T5I, G16E
B9: Val^8-Trp^19-Glu^22-GLP-1(7-37)OH (peptide)
peptide: B1 peptide with Y10V, Y13W, G16E
B10: Val^8-Trp^16-Glu^22-Ile^33-GLP-1(7-37)OH (peptide)
peptide: B1 peptide with Y10W, G16E, V27I
B11: Val^8-Phe^16-Glu^22-GLP-1(7-37)OH (peptide)
peptide: B1 peptide with Y10F, G16E
B12: Val^8-Phe^18-Glu^22-GLP-1(7-37)OH (peptide)
peptide: B1 peptide with Y10V, S12F, G16E
B13: Val^8-Ile^18-Glu^22-GLP-1(7-37)OH (peptide)
peptide: B1 peptide with Y10V, S12I, G16E
B14: Val^8-Phe^19-Glu^22-GLP-1(7-37)OH (peptide)
peptide: B1 peptide with Y10V, Y13F, G16E
B15: Val^8-Glu^22-Ile^27-GLP-1(7-37)OH (peptide)
peptide: B1 peptide with Y10V, G16E, E21I
B16: Val^8-Glu^22-Leu^25-GLP-1(7-37)OH (peptide)
peptide: B1 peptide with Y10V, G16E, A19L
B17: Val^8-Trp^16-Glu^22-Val^25-Ile^33-GLP-1(7-37)OH (peptide)
peptide: HVEGTFTSDWSSYLEEQAVKEFIAWLIKGRG

Biological target: T1, human GLP-1 receptor (human, UniProt P43220)
Test: not given

Row | Molecule | GLP-1 receptor activation relative to Val^8-GLP-1(7-37)OH (relative potency)
1 | Val^8-Cys^16-Lys^26-Arg^34-GLP-1(7-37)OH (peptide) | 1.9
2 | Val^8-Cys^16-Lys^26-GLP-1(7-37)OH (peptide) | 4.2
3 | Val^8-Val^16-GLP-1(7-37)OH (peptide) | 1.1

Biological target: T1, human GLP-1 receptor
Test: cell-based or functional assay

Row | Molecule | GLP-1 receptor activation relative to Val^8-GLP-1(7-37)OH [relative potency]
4 | B1 | 2.5
5 | B2 | 1.7
6 | B3 | 3.1
7 | B4 | 3.5
8 | B5 | 3.3
9 | B6 | 2.5
10 | B7 | 2.7
11 | B8 | 4.3
12 | B9 | 3.2
13 | B10 | 4.1
14 | B11 | 2.3
15 | B12 | 2
16 | B13 | 4
17 | B14 | 1.5
18 | B15 | 2
19 | B16 | 2.8
20 | B17 | 5

Biological target: T1, human GLP-1 receptor
Test: cell-based or functional assay
Remark: another data set of the same source

Row | Molecule | GLP-1 Receptor Activation (relative to GLP-1(7-37)OH) [relative potency]
21 | B1 | 1.18
22 | B2 | 0.81
